Assay results published in patent publication US9096681B2, “XBP1, CD138, and CS1 peptides” (Dana-Farber Cancer Institute, Inc., priority 2008, dated 2015).

Legend:
[1] = target: T1, HLA-A2 molecules on the surface of human T2 cells (Homo sapiens, UniProt P04439, D140Y/D185E/D98H/E176V/E277Q/G131W/G231S/I119V/I121R/I166T/I218V/L300P/L318F/N151K/N90K/P208A/P217A/Q86G/Q94H/R138H/R169H/T345S); assay: Peptide stability assay (peptide/HLA-A2 binding stability post-Brefeldin A); conditions: for HLA-A2 binding stability (HLA-A2 up-regulation on T2 cells) versus native counterpart: spliced XBP1 heteroclitic peptides (FIG. 4)
[2] = target: T1, HLA-A2 molecules on the surface of human T2 cells; type: binding; conditions: non-spliced XBP1 peptides (FIG. 1), 50 μg/ml peptide (30 μg/ml influenza peptide), overnight
CD8+ T cells = assay: Expansion of P2 peptide-specific CS1-CTL (HLA-A*0201 P2-tetramer / anti-CD8 flow analysis); type: cell-based, human; conditions: after the fourth re-stimulation with peptide-presenting dendritic cells
[3] = system: CD3+ T lymphocytes from normal HLA-A2+ donors; assay: Phenotypic analysis of peptide-stimulated T cells (flow cytometry); type: cell-based, human; conditions: after peptide stimulation; for percentage of CD8+ T cells: unstimulated cultures 33%; for percentage of CD4+ T cells: unstimulated cultures 64%
Description: Peptide-specific CTL (that is, XBP1, CD138, or CS1-peptide-specific CTL) were generated ex vivo by repeated stimulation of CD3^+ T lymphocytes obtained from normal HLA-A2^+ donors with XBP1, CD138, or CS1-peptide-pulsed antigen-presenting cells (APC), either T2 cells or mDC. In brief, T2 cells were washed and resuspended in serum-free AIM-V medium (Gibco BRL) and pulsed overnight at 37° C. with 50 μg/ml of the appropriate XBP1 or CD138 peptide. Peptide-pulsed APC were washed, counted, irradiated at 10 Gy and used to prime CD3^+ T cells at a 1:40 T2/peptide (stimulator)-to-CD3^+ T cell (responder) ratio in AIM-V medium supplemented with 10% human AB serum (BioWhittaker, Walkersville, Md.). The T cell cultures were restimulated every seven days with irradiated APC/peptide for a total of 4 cycles to generate XBP1 peptide-specific CTL (XBP1-CTL), CD138 peptide-specific CTL (CD138-CTL), or CS1 peptide-specific CTL (CS1-CTL). It is clear from the foregoing that “XBP1-CTL,” “CD138-CTL,” and “CS1-CTL” referred to herein are not clonal (or homogenous) populations. Rather, the XBP1-CTL, CD138-CTL, and CS1-CTL cells are heterogenous populations of lymphocytes comprising XBP1 peptide-, CD138 peptide-, or CS1 peptide-specific CTL along with non-specific CTL, APCs, and other lymphocytes obtained from the normal donors. 50 U/ml of interleukin-2 (IL-2) was added to the cultures two days after the second stimulation. Control T cell cultures (unstimulated with peptide) were maintained in AIM-V medium supplemented with 10% human AB serum containing 50 U/ml IL-2.
To determine the phenotype of the XBP1-CTL, CD4, or CD8 expression by the cells was detected using anti-CD4-PE or anti-CD8-FITC mouse anti-human mAbs. In addition, a variety of other expression markers were detected on the cells using combinations of either FITC-conjugated anti-CD69/PE-conjugated-anti-CD45RO or FITC-conjugated anti-CD45RA-FITC/PE-conjugated anti-CCR7 mouse anti-human mAbs. Alternatively, HLA-A2 expression by U266, McCAR, ML-2 and MM1S cells was determined using an FITC-conjugated anti-HLA-A2 anti-human mAb. After contacting the cells with antibodies for 15 minutes at 4° C., the cells were washed and analyzed using a FACSort™ flow cytometer with CellQuest v2.1 software (Becton Dickinson).
Cytotoxic T lymphocytes (CTL) are defined phenotypically by the expression of distinct cell surface antigens (e.g., CD8). Cell surface antigens can also be used to further define CTL as naïve or activated memory cells. For example, naïve humanCTL can be identified by the presence of CD45RA^+/CCR7^+, whereas activated human memory cells can be identified as CD69^+/CD45RO^+. Flow cytometry was performed on populations of human T cells stimulated with the heteroclitic peptides to determine the percentage of CTL that were naïve or activated memory cells. […] The unstimulated control T cells or CD138-CTL were further examined for naïve (CD45RA^+/CCR7^+) or activated memory (CD69^+/CD45RO^+) cell status.

McCAR cells = assay: CTL proliferation by CFSE tracking, stimulation with McCAR cells; type: cell-based, human; conditions: cultured with McCAR cells, day 4
Description: XBP1-CTL or CD138-CTL were washed twice in PBS (Gibco-BRL) and resuspended in RPMI-1640 culture medium at a concentration of 1×10^6 cells/ml. CFSE (Molecular Probes, Eugene, Oreg.) in the form of a 5 mM stock solution in DMSO was added to the CTL to give a final concentration of 5 μM and incubated for 10 minutes at 37° C. in a CO2 incubator protected from light. After incubation, a volume of ice-cold PBS (containing 2% FCS) equivalent to five-times the volume of the CTL cells was added to the cells to quench the reaction. Cells were incubated for 5 minutes on ice, centrifuged and resuspended in fresh PBS (containing 2% FCS) after a total of three washings. CFSE-labeled T cells were adjusted to a concentration of 2×10^6 cells/ml with RPMI culture medium, stimulated with 2×10^5 cells/ml McCAR cells, ML-2 cells, MM1S cells, or no cells. The stimulated CFSE-labeled cells were examined on by FFC analysis day 4.
XBP1-CTL were exposed to carboxyfluoroscein succinimidyl ester (CFSE) as described above. Proliferation of the XBP1-CTL in response to stimulation with various tumor lines was determined by measuring the amount of CFSE in the cells. CFSE is a membrane permeable dye, which is taken up by cells. […] Thus, the number of cell divisions can be determined as the inverse of the concentration of dye in each cell of a population.

YILDNLDPV (listed as Influenza virus) [heteroclitic peptide derived from native spliced XBP1 #1p]
HLA-A2 binding stability (HLA-A2 up-regulation on T2 cells) versus native counterpart [1]: did not exhibit a significant increase in HLA-A2 stability over its native counterpart

ILAVLTLQI (listed as Homo sapiens) [XBP1189-197, native non-spliced XBP1 peptide]
affinity for HLA-A2, HLA-A2-mean fluorescence intensity (MFI) [2]: significant affinity for HLA-A2 affinity, although less than that of XBP1184-192

VLTLQIQSL (ILAVLTLQI; listed as Homo sapiens) [XBP1192-200, native non-spliced XBP1 peptide]
affinity for HLA-A2, HLA-A2-mean fluorescence intensity (MFI) [2]: significant affinity for HLA-A2 affinity, although less than that of XBP1184-192

KLLLENQLL (listed as Homo sapiens) [XBP1110-118, native non-spliced XBP1 peptide]
affinity for HLA-A2, HLA-A2-mean fluorescence intensity (MFI) [2]: significant affinity for HLA-A2 affinity, although less than that of XBP1184-192

SLFVLGLFL (listed as Homo sapiens) [P2, native CS1 peptide]
percentage of cells bound by both HLA-A*0201 P2-tetramer and anti-CD8 antibody (CD8+ T cells): Approximately 4.1%

RMSELEQQV (listed as Homo sapiens) [XBP193-101, native non-spliced XBP1 peptide]
affinity for HLA-A2, HLA-A2-mean fluorescence intensity (MFI) [2]: significant affinity for HLA-A2 affinity, although less than that of XBP1184-192

GLVGLIFAV (listed as Homo sapiens) [CD138 #2p, native CD138 peptide]
percentage of CD8+ T cells [3]: 82%
percentage of CD4+ T cells [3]: 15%

LLREKTHGL (listed as Homo sapiens) [XBP1117-125, native non-spliced XBP1 peptide]
affinity for HLA-A2, HLA-A2-mean fluorescence intensity (MFI) [2]: significant affinity for HLA-A2 affinity, although less than that of XBP1184-192

YLFPQLISV (listed as Homo sapiens) [SP XBP1 #3M, heteroclitic spliced XBP1 367-375 peptide]
percentage of CD69+/CD45RO+ (activated memory) cells ([3]; control T cells 4%): 64%
percentage of CD8+ T cells [3]: 75%
percentage of CD4+ T cells [3]: 18%
time for which higher level of HLA-A2 up-regulation was maintained ([1]; in Brefeldin A after removing unbound peptide (FIG. 4)): 6 h
HLA-A2 binding stability (HLA-A2 up-regulation on T2 cells) versus native counterpart [1]: increase in HLA-A2 up-regulation on T2 cells
CTL proliferation (M1 gated, CFSE) (McCAR cells): 42%
